The koff is the first-order rate constant of dissociation. The term Kd denotes the free concentration of one partner at which half of the binding sites on the other are occupied at equilibrium, for simple one-to-one binding. The kon is a measure of how fast the partners come together. What is called EC50 (read off the curve) is the concentration giving half of the maximal effect.

Changes are numbered by the printed parent chain. Numbers in names are those of the source. Where no end group is shown, it is not given here. The star is where a group is joined. Biotin = O=C1N[C@H]2[C@H](CS[C@H]2CCCCC(=O)*)N1

Assay [1] addresses T1, GST-human NOGO-A56 (human).
T1 construct: Expressed in E. coli BL21 from pGEX-6P1 and purified on glutathione-sepharose; the GST tag is part of the protein in the assays; also called GST-Nogo-A 5+6; GST Nogo-A 5 + 6
As to the kind of experiment: SPR (Biacore) off-rate ranking on GST-human NOGO-A56 chip, one experiment. A general note: SPR reads the build-up and loss of mass on a sensor chip optically.
Experimental: (§1) GST-human NOGO-A56 was immobilised to a CM5 chip by primary amine coupling using the Biacore Wizard program designed for targeted immobilisation levels. The CM5 sensor surface was activated by passing a solution of 50 mM N-hydroxy-succinimide (NHS) and 200 mM N-ethyl-N′-dimethylaminopropyl carbonide (EDC). Then GST-human NOGO-A56 in sodium acetate buffer, pH5.0 or pH 4.5, was passed over the chip and immobilised. After immobilisation was complete any still activated esters were blocked by an injection of 1M ethanolamine hydrochloride, pH8.5.
The GST-human NOGO-A56 chip was prepared as for kinetic analysis. Cell supernatants where taken directly from transient transfections of CHO-K1 cells. These were passed directly over the sensor surface and the interaction measured. A mock transfected cell supernatant was used for double referencing to remove any artefacts due to the tissue culture media. All runs were referenced against a blanked sensor surface (one that had been activated and blocked as described earlier but had no addition of ligand). Analysis of binding was carried out using the BIAevaluation kinetic analysis software version 4.1.

For assay [2], the target named is T2, H28L16.
T2 construct: IgG1 (L235A, G237A) / kappa; CAMPATH-1H signal (1-19) left out; also called H28FL L16FL; NOGO H28L16
T2 sequence (light, as listed by the source): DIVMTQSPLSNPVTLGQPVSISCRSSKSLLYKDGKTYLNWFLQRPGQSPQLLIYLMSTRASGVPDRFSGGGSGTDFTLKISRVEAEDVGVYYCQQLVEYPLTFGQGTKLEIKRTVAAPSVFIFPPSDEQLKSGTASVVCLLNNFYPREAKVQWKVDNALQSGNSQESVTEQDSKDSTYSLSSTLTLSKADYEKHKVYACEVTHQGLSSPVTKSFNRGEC
As to the kind of experiment: competition ELISA: H28L16 captured on anti-human IgG, peptide pre-mixed with GST-human NOGO-A56 (1 ug/ml), bound NOGO detected with anti-GST-HRP. On the technique in general: In an ELISA, binding on a coated surface is turned into a signal by an enzyme label.
Experimental: The plates were rinsed 3 times with TBS containing 0.05% Tween (TBST) then blocked with 1% BSA in TBST at room temperature for 1 hour. […] The plates were washed 3 times with TBST. Peptides (from 0 to 100 g/ml) and GST-human NOGO-A56 at a concentration of 1 ug/ml (diluted in 1% BSA in TBST) were pre-mixed prior to addition into the wells and incubated at room temperature for 1 hour. The plates were washed 3 times with TBST then incubated for 1 hour with rabbit anti-GST peroxidase conjugate (Sigma, #A7340, 1:2000, diluted in 1% BSA in TBST) for 1 hour. The plates were washed 3 times with TBST and then incubated with 50 l OPD peroxidase substrate (Sigma) per well for 10 minutes. The colour reaction was stopped by the addition of 25 l concentrated H₂SO₄. Absorbance at 490 nm was measured using a plate reader.

Assay [3] addresses T1, GST-human NOGO-A56. Kind of assay: SPR (Biacore), NOGO amine-coupled to CM5, antibody flowed over.
Experimental: as §1
Assay [4] addresses T1, GST-human NOGO-A56. Kind of assay: direct ELISA, GST-human NOGO-A56 coated at 1.0 mcg/ml, purified antibody, OD490.
Experimental: (§2) Wells were rinsed once with TBS+0.05% Tween (TBST) then incubated with 2% BSA in TBST to block non-specific binding sites at room temperature for 1 hour. Antibodies were diluted in TBST+2% BSA to 10 μg/ml and ½ dilutions made from this. Antibodies were added to wells in duplicate and incubated at room temperature for 1 hour. […] The wells were washed three times with TBST and then incubated with 100 μl OPD peroxidase substrate (Sigma) per well for 10 minutes. The colour reaction was stopped by the addition of 25 μl concentrated H₂SO₄. Optical density at 490 nm was measured using a plate reader. Background values read from wells with no antibody were subtracted.
The target in assay [5] is T1, GST-human NOGO-A56. Described as above. The source holds these as a separate data set.
Experimental: as §2
Assay [6] deals with T1, GST-human NOGO-A56. Kind of assay: SPR (Biacore) off-rate on NOGO chip, panel of H6FL CDR H3 variants with L13FL.
The target of assay [7] is T1, GST-human NOGO-A56. Kind of assay: SPR (Biacore T100), antigen amine-coupled to CM5, antibody 0.125-8 nM; mean of six runs in duplicate (SD in brackets).
Text: In the first approach, the recombinant Nogo-A was coupled to the surface of the chip and anti-Nogo-A antibodies passed over this surface. In the second approach, Protein A was used to capture the antibody onto the surface of the chip over which the recombinant GST-human Nogo-A56 was passed.
The antigen was bound to the CM5 chip by primary amine coupling. […] The values show the mean and standard deviation (in brackets) of six independent runs carried out in duplicate. Each completed data set was analysed independently prior to the calculation of mean and standard deviation.
In assay [8] the target is T1, GST-human NOGO-A56. Kind of assay: SPR (Biacore), GST-human NOGO-A56 amine-coupled to CM5, antibody flowed over, 25 C.
Experimental: as §1
(§3) The anti-NOGO mAbs were diluted down in HBS-EP (10 mM HEPES, pH 7.4, 150 mM NaCl, 3 mM EDTA, and 0.005% P-20 surfactant) for the BIAcore 3000 or HBS-EP+ (10 mM HEPES, pH 7.4, 150 mM NaCl, 3 mM EDTA, and 0.05% P-20 surfactant) in the case of the T100 and binding studies were carried out at range of defined antibody concentrations. All runs were referenced against a blanked sensor surface (one that had been activated and blocked as described earlier but had no addition of ligand). Analysis of binding was carried out using the BIAevaluation kinetic analysis software version 4.1 for the BIAcore 3000 and T100 kinetic analysis software version 1.0. […] Unless otherwise stated, the BIAcore experiments were performed at 25° C.
Assay [9] addresses T1, GST-human NOGO-A56. Kind of assay: competition ELISA on coated GST-Nogo-A 5+6; competitor 2A10 pre-mixed, bound 2A10 detected with anti-mouse IgG-HRP.
For assay [10], the target named is T1, GST-human NOGO-A56. Kind of assay: reverse format ELISA: antibody captured on anti-human IgG, GST-Nogo-A 5+6 detected with anti-GST-HRP; the x axis is the antibody concentration.
For assay [11], the target named is T1, GST-human NOGO-A56. Kind of assay: SPR (Biacore), GST-human NOGO-A56 amine-coupled to CM5, antibody flowed over, 25 C. The source holds these as a separate data set.
Experimental: as §1, §3
Assay [12] concerns the target T1, GST-human NOGO-A56. As to the kind of experiment: SPR (Biacore), GST-human NOGO-A56 amine-coupled to CM5, antibody flowed over, 37 C.
For assay [13], the target named is T1, GST-human NOGO-A56. Kind of assay: SPR (Biacore T100), reverse format: antibody captured by Protein A, GST Nogo-A 5+6 0.125-8 nM flowed over; mean (SD in brackets).
Text: Protein A was immobilised to approximately 4000RUs by primary amine and used to capture 200-300RUs of the sample antibodies. […] The values show the mean and standard deviation (in brackets) of three independent runs in duplicate. Each data set was independently analysed prior to the calculation of the mean and standard deviation.
The target of assay [14] is T1, GST-human NOGO-A56. Kind of assay: direct ELISA, GST-Nogo-A 5+6 coated at 1.0 mcg/ml, anti-human IgG-HRP, Abs490.
Experimental: as §2
Assay [15] addresses T1, GST-human NOGO-A56. As to the kind of experiment: SPR (Biacore), GST-human NOGO-A56 amine-coupled to CM5, antibody flowed over, 25 C. This is another data set of the same source.
Experimental: as §1, §3
Assay [16] has as its target T3, Marmoset NOGO (A56) plus GST tag (marmoset).
T3 construct: also called GST-NOGO-A56 from marmoset
As to the kind of experiment: direct ELISA on GST-NOGO-A56 from marmoset, Abs490.

For assay [17], the target named is T4, native human Nogo-A of IMR32 neuroblastoma cells (intracellular) (human, UniProt Q9NQC3 1-1192).
T4 construct: whole, on cells; Detected inside permeabilised, fixed cells (ER-resident), not on the cell surface; also called intracellular Nogo-A; native Nogo-A
T4 sequence (looked up): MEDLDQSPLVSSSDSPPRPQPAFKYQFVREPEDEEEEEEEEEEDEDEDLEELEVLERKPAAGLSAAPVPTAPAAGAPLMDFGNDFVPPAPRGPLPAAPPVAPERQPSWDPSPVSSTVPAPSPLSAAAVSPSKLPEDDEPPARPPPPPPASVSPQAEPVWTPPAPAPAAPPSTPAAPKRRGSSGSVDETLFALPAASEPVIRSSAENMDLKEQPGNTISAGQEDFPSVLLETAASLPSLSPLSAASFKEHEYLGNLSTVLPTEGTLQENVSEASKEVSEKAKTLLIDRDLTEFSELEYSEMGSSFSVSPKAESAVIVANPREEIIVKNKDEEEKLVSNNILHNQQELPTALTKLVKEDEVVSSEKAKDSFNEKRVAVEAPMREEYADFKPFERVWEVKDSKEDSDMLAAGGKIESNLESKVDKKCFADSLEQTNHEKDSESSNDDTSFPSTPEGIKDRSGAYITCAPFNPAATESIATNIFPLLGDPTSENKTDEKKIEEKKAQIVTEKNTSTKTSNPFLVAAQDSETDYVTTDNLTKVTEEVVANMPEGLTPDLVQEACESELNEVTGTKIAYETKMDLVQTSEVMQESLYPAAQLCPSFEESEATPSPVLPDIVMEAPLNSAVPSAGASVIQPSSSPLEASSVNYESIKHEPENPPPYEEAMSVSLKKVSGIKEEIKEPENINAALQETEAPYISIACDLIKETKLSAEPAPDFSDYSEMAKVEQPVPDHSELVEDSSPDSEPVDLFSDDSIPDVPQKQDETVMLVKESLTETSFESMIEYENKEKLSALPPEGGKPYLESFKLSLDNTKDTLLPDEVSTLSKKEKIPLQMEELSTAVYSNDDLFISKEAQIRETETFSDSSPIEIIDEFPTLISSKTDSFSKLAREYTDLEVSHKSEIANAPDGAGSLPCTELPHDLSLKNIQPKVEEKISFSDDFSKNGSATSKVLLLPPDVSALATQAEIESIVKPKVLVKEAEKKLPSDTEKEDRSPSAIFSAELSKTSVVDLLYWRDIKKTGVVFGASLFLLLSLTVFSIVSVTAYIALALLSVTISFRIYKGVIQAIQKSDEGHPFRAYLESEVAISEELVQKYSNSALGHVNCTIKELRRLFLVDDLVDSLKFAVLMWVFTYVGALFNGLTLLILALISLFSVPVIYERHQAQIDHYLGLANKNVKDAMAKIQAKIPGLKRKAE
Kind of assay: flow cytometry on permeabilised, fixed IMR32 cells (intracellular Nogo-A), PE anti-human IgG, MFI.
Experimental: In the second assay, the ability of the humanised antibodies to bind native Nogo-A was assessed using a human neuroblastoma cell line—IMR32. This cell line is characterised by high intracellular/low cell surface levels of Nogo-A protein. In an attempt to increase the binding signal, the assay was set-up to detect intracellular Nogo-A (ER-resident). IMR32 cells were permeabilised and fixed prior to staining with the anti-Nogo-A humanised antibodies. Binding of the antibodies to Nogo-A was detected using an anti-human IgG-PE labelled secondary (Sigma, #P8047).

Assay [18] concerns the target T5, Rat NOGO (A56) plus GST tag (rat).
T5 construct: also called GST-NOGO-A56 from rat
As to the kind of experiment: direct ELISA on GST-NOGO-A56 from rat, Abs490.

For assay [19], the target named is T6, Cynomolgus monkey NOGO (A56) plus GST tag (cynomolgus monkey).
T6 construct: also called cynomolgus Nogo-A; GST-NOGO-A56 from cynomolgus
T6 sequence (chain, as listed by the source limits assumed): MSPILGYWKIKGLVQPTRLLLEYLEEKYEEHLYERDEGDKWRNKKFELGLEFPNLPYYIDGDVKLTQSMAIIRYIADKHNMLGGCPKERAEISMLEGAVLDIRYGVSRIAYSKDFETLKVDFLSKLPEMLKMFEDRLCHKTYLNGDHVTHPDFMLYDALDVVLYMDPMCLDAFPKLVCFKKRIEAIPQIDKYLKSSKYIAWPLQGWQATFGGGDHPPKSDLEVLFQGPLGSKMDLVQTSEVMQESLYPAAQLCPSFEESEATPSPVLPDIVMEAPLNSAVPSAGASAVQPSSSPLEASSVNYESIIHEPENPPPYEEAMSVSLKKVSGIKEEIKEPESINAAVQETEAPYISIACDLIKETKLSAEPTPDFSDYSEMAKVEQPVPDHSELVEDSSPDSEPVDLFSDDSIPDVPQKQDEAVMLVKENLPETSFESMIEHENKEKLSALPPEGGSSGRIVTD
As to the kind of experiment: direct ELISA on GST-NOGO-A56 from cynomolgus, Abs490.

The target of assay [20] is T7, Squirrel monkey NOGO (A56) plus GST tag (squirrel monkey).
T7 construct: also called GST-NOGO-A56 from squirrel monkey
T7 sequence (chain, as listed by the source limits assumed): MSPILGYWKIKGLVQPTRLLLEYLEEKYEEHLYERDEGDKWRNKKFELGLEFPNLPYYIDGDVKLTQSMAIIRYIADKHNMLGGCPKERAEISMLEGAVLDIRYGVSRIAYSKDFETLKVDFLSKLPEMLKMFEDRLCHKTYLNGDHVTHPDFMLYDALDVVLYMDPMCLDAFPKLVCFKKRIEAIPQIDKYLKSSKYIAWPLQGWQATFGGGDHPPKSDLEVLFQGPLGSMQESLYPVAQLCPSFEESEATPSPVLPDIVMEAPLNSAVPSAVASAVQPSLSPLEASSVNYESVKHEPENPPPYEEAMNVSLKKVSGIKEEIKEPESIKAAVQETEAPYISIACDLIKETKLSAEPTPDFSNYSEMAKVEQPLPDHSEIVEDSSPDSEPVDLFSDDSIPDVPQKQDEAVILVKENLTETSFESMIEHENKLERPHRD
As to the kind of experiment: direct ELISA on GST-NOGO-A56 from squirrel monkey, Abs490.

T1 sequence (chain, as listed by the source limits assumed): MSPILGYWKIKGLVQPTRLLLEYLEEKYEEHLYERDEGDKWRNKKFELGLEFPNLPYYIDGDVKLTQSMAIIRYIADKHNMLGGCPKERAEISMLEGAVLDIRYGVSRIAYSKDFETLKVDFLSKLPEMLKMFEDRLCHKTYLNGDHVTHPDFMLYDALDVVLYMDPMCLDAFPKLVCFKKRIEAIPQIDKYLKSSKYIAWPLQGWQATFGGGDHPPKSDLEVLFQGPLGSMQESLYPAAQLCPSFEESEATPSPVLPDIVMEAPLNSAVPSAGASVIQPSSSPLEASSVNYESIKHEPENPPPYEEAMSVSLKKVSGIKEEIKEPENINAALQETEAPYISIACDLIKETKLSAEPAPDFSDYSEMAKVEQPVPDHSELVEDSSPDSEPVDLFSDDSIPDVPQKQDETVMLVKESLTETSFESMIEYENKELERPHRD
T3 sequence (chain, as listed by the source limits assumed): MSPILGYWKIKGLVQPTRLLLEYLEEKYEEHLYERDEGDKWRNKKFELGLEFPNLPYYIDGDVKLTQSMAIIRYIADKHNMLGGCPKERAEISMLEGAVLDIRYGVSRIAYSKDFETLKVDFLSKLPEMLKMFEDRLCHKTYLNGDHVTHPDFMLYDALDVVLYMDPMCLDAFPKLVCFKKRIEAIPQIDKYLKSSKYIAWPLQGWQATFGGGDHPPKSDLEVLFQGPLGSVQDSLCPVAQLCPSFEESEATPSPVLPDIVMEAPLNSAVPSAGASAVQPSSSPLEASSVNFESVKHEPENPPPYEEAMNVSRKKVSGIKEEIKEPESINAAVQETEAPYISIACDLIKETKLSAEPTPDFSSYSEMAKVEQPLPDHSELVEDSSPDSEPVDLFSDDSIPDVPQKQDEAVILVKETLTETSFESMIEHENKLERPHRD
T5 sequence (chain, as listed by the source limits assumed): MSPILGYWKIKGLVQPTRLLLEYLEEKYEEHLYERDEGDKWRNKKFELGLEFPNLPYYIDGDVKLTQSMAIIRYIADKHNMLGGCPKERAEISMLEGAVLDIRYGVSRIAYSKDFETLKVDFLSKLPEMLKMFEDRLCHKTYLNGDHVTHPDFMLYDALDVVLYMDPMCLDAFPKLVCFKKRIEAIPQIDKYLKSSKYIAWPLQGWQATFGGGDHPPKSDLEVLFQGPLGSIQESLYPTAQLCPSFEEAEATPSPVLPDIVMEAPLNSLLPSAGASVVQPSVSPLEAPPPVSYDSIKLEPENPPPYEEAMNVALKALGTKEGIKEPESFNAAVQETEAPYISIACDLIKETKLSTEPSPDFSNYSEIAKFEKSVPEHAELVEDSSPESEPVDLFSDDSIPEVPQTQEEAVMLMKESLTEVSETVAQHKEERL

B1: Hc(G95M)Lc (antibody, human IgG1, kappa, V domains shown)
VH: QVQLQQPGTELVKPGASVKLSCKASGYTFTSYWMHWVKQRPGQGLEWIGNINPSNGGTNYNEKFKSKATLTVDKSSSTAYMQLSSLTSEDSAVYYCELMQGYWGQGTLVTVSS
VL: DIVITQDELSNPVTSGESVSISCRSSKSLLYKDGKTYLNWFLQRPGQSPQLLIYLMSTRASGVSDRFSGSGSGTDFTLEISRVKAEDVGVYYCQQLVEYPLTFGAGTKLELKR
notes: also called HcLc containing the G95M mutation of the CDR H3
In assay [1], B1 came in with a koff of 0.000614 s⁻¹.

B2: peptide 16 (peptide)
peptide: Biotin-SGSGYESIKHEPENPPPYEE
As to B2, the binding result in assay [2] is recorded as “no binding (tested: about 33 mcg/ml)”.

B3: peptide 6 (biotin-SGSG-TPSPVLPDIVMEAPLN) (peptide)
peptide: Biotin-SGSGTPSPVLPDIVMEAPLN
In the case of B3, the binding result in assay [2] is “binds”.

B4: H6L13 (H6FL L13FL) (antibody, human IgG1, kappa, V domains shown)
VH: QVQLVQSGAEVKKPGASVKVSCKASGYTFTSYWMHWVRQAPGQGLEWIGNINPSNGGTNYNEKFKSRATMTRDTSTSTAYMELSSLRSEDTAVYYCELGQGYWGQGTLVTVSS
VL: DIVMTQSPLSLPVTLGQPASISCRSSKSLLYKDGKTYLNWFQQRPGQSPQLLIYLMSTRASGVPDRFSGGGSGTDFTLKISRVEAEDVGVYYCQQLVEYPLTFGQGTKLEIKR
notes: Human IgG1 (L235A, G237A, EU Index) / kappa; also called H6L13 with VH CDR3 GQGY
B4 displayed a Kd in [3] of 6.97 nM. The values for the koff in assay [3], in assay [1] and in assay [6] were 0.00722 s⁻¹, 0.0138 s⁻¹ and 0.0198 s⁻¹, respectively. In assay [3], the kon worked out at 1.04e+06 M⁻¹ s⁻¹. Besides, the half-maximal effective concentration (EC50 (read off the curve)) in assay [4] and in assay [5] was around 0.1 µg/mL throughout.

B5: H100L100 (antibody, V domains shown)
VH: B4 VH with G101S
VL: DIVMTQSPLSLPVTLGQPASISCRSSKSLLYKDGKTYLNWFRQRPGQSPQLLIYLMSTRASGVPDRFSGGGSGTDFTLKISRVEAEDVGVYYCQQLVEYPLTFGQGTKLEIK
notes: Full length versions of the heavy and light chains were expressed in CHO cells; H100 is H6 VH with G101S (Kabat), L100 is L13 VL with Q37R (Kabat); also called G101S/Q37R variant
As for B5, in assay [3], binding was characterised by a dissociation constant (Kd) of 0.396 nM, the koff was 0.00507 s⁻¹ and the kon turned out to be 1.28e+07 M⁻¹ s⁻¹.

B6: H28L13 (antibody, human IgG1, kappa, V domains shown)
VH: B4 VH with R67K, G99M
VL: B4 VL
notes: IgG1 (L235A, G237A) / kappa; CAMPATH-1H signal (1-19) left out; also called H28FL L13FL
Consider B6, for which the Kd in assay [7] was determined as 1.11 nM; in [8], 0.45 nM; in assay [11], 0.936 nM; in assay [12], 1.02 nM; in assay [13], 0.34 nM; in [15], 0.454 nM. For the same molecule, the koff in [8] stood at 0.00317 s⁻¹; in [11], 0.00389 s⁻¹; in assay [12] it was 0.00759 s⁻¹; in assay [15] it was 0.0033 s⁻¹. The kon in assay [8] was found to be 6.97e+06 M⁻¹ s⁻¹; in assay [11], 4.16e+06 M⁻¹ s⁻¹; in assay [12] it was 7.43e+06 M⁻¹ s⁻¹; in assay [15] it was 7.26e+06 M⁻¹ s⁻¹. Also, in assay [9], the “IC50 (read off the curve)” value is around 5 µg/mL. Also, the “EC50 (read off the curve)” value in assay [4] was around 0.08 µg/mL; in [10], around 0.06 µg/mL; in [14], around 0.03 µg/mL; in assay [5], around 0.07 µg/mL.

B7: H20L16 (antibody, human IgG1, kappa, V domains shown)
VH: B4 VH with R67K
VL: B4 VL with L11N, A19V, Q42L
notes: IgG1 (L235A, G237A) / kappa; CAMPATH-1H signal (1-19) left out
In the case of B7, the Kd in assay [7] amounted to 1.8 nM; in [11], 1.16 nM; in assay [12], 1.51 nM; in assay [13], 0.31 nM. Also, the “EC50 (read off the curve)” value is around 0.07 µg/mL in [16]; around 0.08 µg/mL in assay [18]; around 0.09 µg/mL in assay [4]; around 0.09 µg/mL in assay [19]; around 0.08 µg/mL in assay [10]; around 0.05 µg/mL in assay [20]. Besides, the “EC50 (read off the curve)” value in assay [14] and in assay [5] was around 0.1 µg/mL in each case. Moreover, the binding result in assay [17] is “binds”. The values for the koff in assay [11] and in [12] were 0.00542 s⁻¹ and 0.0108 s⁻¹, respectively. Further, the association rate constant (kon) in assay [11] came to 4.69e+06 M⁻¹ s⁻¹; in assay [12] it was 7.17e+06 M⁻¹ s⁻¹.

B8: H100L101 (antibody, V domains shown)
VH: B4 VH with G101S
VL: B5 VL with R42Q, Q50R
notes: Full length version expressed in CHO cells; L101 is L13 VL with Q45R (Kabat)
In assay [3], B8 displayed a Kd of 0.329 nM, a koff of 0.00429 s⁻¹ and a kon of 1.3e+07 M⁻¹ s⁻¹.

B9: peptide 7 (biotin-SGSG-VLPDIVMEAPLNSAVP) (peptide)
peptide: Biotin-SGSGVLPDIVMEAPLNSAVP
B9: the “IC50 (read off the curve)” value in assay [2] is around 0.9 µg/mL.

B10: peptide 17 (peptide)
peptide: Biotin-SGSGKHEPENPPPYEEAMSV
Consider B10, for which the binding result in assay [2] was “no binding (tested: about 33 mcg/ml)”.

These data come from US20130287781A1 (GlaxoSmithKline, published 2013).
